Experimental data as given in patent US7067619 (LA JOLLA CANCER RESEARCH FOUNDATION, dated 2006).
Bridge positions count the residues as written; N and C are the ends. Ends that are not written are not given here.

Legend:
[1] = biological target: T1, αvβ3 integrin isolated from human placental extract (human, UniProt P06756 31-1048; P05106 27-788); experiment: phage competition on αvβ3-coated wells
T1 construct: isolated on GRGDSPK-Sepharose; said to be primarily αvβ3

[2] = biological target: αvβ5 integrin isolated from human placental extract (human, UniProt P06756 31-1048; P18084 24-799); experiment: phage competition on αvβ5-coated wells
[3] = biological target: T1, αvβ3 integrin isolated from human …; experiment: phage panning on coated integrin
Protocol: In the first panning, the integrins were coated at 5 µg per well, and the library pool was incubated for 4 hours at 25° C. in TBS buffer containing 1% bovine serum albumin and 1 mM MnCl_2 (α_5β_1, α_vβ_3) 1 mM MgCl_2 ($\alphaIIb\beta_3$) or 1 mM CaCl_2 (α_vβ_5).

[4] = biological target: T2, α5β1 integrin isolated from human placental extract (human, UniProt P08648 42-1049; P05556 21-798); experiment: phage binding to integrin-coated wells
T2 construct: coated on plastic wells or captured by anti-α5 antibody; also called fibronectin receptor
T2 sequence (P08648 42-1049, chain 1 of 2): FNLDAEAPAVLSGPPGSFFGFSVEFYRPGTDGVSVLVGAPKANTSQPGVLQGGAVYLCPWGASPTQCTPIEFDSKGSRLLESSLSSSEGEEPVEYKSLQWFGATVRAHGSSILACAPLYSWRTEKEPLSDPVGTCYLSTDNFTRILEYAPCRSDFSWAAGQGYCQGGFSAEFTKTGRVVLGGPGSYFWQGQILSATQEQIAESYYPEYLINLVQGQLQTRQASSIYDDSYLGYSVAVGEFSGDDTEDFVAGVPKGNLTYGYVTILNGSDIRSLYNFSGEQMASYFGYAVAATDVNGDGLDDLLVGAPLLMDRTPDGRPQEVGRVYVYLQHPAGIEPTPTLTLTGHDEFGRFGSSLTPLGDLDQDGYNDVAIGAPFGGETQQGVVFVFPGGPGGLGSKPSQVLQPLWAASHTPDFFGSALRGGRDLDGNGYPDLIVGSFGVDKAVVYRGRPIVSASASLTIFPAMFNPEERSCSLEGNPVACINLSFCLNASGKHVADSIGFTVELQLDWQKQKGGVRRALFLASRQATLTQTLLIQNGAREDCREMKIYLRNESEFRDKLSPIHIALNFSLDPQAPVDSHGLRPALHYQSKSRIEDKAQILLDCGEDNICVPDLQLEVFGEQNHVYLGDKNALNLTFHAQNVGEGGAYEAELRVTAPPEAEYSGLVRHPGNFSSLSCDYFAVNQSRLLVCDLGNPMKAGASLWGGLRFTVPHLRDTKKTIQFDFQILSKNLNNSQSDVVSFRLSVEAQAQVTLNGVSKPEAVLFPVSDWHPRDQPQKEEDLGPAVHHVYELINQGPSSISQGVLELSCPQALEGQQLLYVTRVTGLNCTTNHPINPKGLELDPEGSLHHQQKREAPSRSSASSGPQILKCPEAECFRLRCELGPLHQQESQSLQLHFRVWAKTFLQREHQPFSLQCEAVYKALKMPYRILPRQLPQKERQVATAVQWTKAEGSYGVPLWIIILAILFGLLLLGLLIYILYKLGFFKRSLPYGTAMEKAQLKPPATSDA
T2 sequence (P05556 21-798, chain 2 of 2): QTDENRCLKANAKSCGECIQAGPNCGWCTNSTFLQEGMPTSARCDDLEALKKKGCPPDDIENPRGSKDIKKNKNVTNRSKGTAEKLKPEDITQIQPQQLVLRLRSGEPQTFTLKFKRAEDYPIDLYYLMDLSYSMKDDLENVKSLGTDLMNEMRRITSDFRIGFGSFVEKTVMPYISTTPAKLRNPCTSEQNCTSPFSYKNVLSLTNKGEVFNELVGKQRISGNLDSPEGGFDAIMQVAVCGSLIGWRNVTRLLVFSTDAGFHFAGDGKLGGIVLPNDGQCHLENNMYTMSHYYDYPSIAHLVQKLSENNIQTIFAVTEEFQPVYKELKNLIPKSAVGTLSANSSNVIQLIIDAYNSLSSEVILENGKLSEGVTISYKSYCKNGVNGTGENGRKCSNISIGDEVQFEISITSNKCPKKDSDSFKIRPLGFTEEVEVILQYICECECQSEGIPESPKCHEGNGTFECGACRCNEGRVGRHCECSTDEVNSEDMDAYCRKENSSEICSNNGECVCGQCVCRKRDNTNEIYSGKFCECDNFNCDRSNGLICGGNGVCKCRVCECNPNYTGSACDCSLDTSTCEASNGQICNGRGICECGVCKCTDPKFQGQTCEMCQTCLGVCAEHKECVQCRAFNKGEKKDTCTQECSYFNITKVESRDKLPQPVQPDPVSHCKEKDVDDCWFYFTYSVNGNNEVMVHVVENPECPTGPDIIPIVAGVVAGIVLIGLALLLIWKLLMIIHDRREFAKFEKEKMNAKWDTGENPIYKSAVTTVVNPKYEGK

T1 sequence (P06756 31-1048, chain 1 of 2): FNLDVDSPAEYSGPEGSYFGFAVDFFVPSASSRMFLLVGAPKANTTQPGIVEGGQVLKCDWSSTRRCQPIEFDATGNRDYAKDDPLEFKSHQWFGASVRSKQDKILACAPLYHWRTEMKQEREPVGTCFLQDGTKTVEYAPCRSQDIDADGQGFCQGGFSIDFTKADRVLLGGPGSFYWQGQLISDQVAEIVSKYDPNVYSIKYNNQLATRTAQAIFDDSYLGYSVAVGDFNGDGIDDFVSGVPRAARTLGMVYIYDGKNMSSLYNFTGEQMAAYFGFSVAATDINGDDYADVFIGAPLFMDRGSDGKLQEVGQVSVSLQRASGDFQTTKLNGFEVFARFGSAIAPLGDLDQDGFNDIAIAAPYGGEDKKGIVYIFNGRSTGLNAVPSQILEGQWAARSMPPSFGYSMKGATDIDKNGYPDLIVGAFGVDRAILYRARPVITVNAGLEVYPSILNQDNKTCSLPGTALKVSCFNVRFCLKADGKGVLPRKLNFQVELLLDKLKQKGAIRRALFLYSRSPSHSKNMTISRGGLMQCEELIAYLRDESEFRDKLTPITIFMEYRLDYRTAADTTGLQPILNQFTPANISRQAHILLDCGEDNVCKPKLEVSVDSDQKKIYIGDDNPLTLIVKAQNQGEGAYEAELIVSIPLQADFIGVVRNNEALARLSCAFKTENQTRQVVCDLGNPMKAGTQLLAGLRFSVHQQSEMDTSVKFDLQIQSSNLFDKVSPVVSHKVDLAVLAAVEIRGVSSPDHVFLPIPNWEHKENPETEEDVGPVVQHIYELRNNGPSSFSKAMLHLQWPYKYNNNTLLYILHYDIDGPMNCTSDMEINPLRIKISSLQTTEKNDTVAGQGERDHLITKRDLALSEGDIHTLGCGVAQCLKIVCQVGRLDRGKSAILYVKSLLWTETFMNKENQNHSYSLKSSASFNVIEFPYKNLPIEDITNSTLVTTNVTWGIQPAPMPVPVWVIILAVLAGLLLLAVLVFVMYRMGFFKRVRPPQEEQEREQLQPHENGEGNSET
T1 sequence (P05106 27-788, chain 2 of 2): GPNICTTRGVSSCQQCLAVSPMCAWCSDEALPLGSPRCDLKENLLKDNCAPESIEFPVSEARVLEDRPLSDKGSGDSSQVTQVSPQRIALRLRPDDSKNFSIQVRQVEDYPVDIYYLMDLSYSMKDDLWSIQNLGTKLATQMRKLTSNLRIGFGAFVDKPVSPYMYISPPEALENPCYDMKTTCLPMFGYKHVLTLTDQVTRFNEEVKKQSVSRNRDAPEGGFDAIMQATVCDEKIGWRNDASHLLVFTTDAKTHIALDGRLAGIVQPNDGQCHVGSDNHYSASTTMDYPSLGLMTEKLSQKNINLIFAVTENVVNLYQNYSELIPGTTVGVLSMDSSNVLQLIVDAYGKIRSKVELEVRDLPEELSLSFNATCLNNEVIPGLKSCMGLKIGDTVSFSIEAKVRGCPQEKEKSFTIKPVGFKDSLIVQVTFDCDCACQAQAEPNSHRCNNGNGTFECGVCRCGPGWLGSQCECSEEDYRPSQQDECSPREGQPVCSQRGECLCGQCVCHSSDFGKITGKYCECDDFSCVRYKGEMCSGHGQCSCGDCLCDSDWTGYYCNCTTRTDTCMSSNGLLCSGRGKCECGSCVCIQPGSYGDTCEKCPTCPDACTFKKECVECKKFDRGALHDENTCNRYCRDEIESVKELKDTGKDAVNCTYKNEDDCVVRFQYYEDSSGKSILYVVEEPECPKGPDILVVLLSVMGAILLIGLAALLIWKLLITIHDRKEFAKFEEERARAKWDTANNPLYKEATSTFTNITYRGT
Chain of αvβ5 integrin isolated from human placental extract (P06756 31-1048, chain 1 of 2): as the sequence (P06756 31-1048, chain 1 of 2) above
Chain of αvβ5 integrin isolated from human placental extract (P18084 24-799, chain 2 of 2): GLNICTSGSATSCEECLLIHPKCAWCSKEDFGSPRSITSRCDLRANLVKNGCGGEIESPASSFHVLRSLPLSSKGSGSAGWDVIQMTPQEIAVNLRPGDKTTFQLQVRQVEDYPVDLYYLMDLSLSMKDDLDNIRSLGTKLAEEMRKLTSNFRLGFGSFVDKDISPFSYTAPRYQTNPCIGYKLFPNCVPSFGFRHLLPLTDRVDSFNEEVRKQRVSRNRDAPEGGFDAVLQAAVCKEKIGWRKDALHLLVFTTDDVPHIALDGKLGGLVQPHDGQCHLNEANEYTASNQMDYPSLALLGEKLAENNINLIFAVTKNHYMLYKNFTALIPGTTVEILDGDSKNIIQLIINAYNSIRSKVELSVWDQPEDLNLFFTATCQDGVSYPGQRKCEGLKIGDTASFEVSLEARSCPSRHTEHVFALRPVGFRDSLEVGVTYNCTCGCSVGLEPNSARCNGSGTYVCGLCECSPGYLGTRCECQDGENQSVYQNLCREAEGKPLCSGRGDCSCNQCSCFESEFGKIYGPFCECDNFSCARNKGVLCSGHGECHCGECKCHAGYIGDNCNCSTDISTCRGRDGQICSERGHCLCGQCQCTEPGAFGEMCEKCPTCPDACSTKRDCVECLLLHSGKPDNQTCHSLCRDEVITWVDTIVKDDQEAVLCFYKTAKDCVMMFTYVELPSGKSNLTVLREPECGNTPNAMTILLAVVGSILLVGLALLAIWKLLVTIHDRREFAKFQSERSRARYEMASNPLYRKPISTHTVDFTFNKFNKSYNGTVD

Row | Binder | fold lower activity than *CRGDC* [1] [fold] | fold lower activity than *CRGDC* [2] [fold] | binding result [3] | binding result [4]
1 | ACPSRLDSPCG (disulfide 2-10 (inferred), synthetic; also called RLD-containing peptide) [cyclic peptide A*CPSRLDSPC*G] | 100 | 1000 |  | 
2 | CPSRLDSPC (disulfide 1-9 (inferred); not fully specified (N-terminus, C-terminus), on fuse 5 phage, fused to pIII; also called RLD-containing phage) [CPSRLDSPC phage] |  |  | binds | no binding
